# Assay results from paper PMC4928834.
# Assays:
# [1] = target: soluble part of FloA (flotillin A) with 6xHis tag (B. subtilis) (UniProt P54466); test: SEC; FloA6His after Ni-NTA on HiLoad 26/600 Superdex 200 pg, 1.5 ml/min, 20 mM HEPES, 200 mM NaCl, 20 mM MgCl2, 20 mM KCl, pH 7.5
# P54466 = test: SEC; HMW fraction of FloA-Strep run again on gel filtration undiluted, 3 fold and 5 fold diluted; peak areas measured
# [2] = target: soluble part of FloA (flotillin A) with Strep-tag (B. subtilis) (UniProt P54466); test: SEC; FloAstrep after Strep-Tactin on Superose 6 10/300 GL, 0.5 ml/min, 100 mM Tris-Cl, 150 mM NaCl, pH 7.5
substance,measurement,setting,value
soluble part of FloA (flotillin A) with 6xHis tag (from UniProt P54466 56-331) (domain or fragment),stoichiometry N,[1],2
soluble part of FloA (flotillin A) with Strep-tag,percent of the protein in the HMW fraction (5-fold diluted),P54466,82% are in the HMW fraction and 12% in the LMW peak
same,percent of the protein in the HMW fraction (undiluted or 3-fold diluted),P54466,about 90% of the proteins are in the HMW fraction
same,percent of the protein in the LMW peak (5-fold diluted),P54466,82% are in the HMW fraction and 12% in the LMW peak
soluble part of FloA (flotillin A) with Strep-tag (from UniProt P54466 56-331) (domain or fragment),stoichiometry N,[2],4
